Measurements published in article PMC7390762.

Target: N-utilization substance (Nus) G, Escherichia coli (E. coli) (UniProt P0AFG0)
Assay: cryo-EM structure

Sequence of UniProt P0AFG0 (P0AFG0 whole entry): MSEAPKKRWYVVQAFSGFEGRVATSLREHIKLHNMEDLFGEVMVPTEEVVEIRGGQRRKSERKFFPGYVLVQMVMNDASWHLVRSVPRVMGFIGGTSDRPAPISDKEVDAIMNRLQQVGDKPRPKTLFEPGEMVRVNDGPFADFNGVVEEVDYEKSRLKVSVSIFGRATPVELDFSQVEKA

## 70S ribosome (E. coli), intact (from UniProt P0A7R5 5-102) (complex)
  percent of particles with extra density at S10: 5%
  stoichiometry N: 1
